Source: PMC2780661

Tests used:
[1] = target: ATP synthase from mitochondria of Zea mays (Z. mays (endogenous in mitochondria)); experiment: single particle electron microscopy
[2] = target: Complex III2 from potato (potato)

Row | stoichiometry N [1] | stoichiometry N [2] | Substance
1 | 2 | – | ATP synthase from mitochondria of Zea mays (complex)
2 | – | 2 | Complex I from potato
